Our source for the self-cleavage values is the RNAGym collection of RNA variant scans (doi:10.7554/elife.80360).

B1: HDV Ribozyme (parent)
chain: GGCCGGCAUGGUCCCAGCCUCCUCGCUGGCGCCGGCUGGGCAACAUUCCGAGGGGACCGUCCCCUCGGUAAUGGCGAAUGGGACCCA

Variants of B1 are the subject of the data set. As to the kind of experiment: self-cleavage, relative activity (ratio to wild type); higher = more cleavage; co-transcriptional.
For G34U U65A, the self-cleavage came to 0.0923.
Turning to G2A C15G, the self-cleavage was found to be 0.0277.
Next, G6C G10C: 0.0875; U46G C86G: 1.01; G25C U60C: 0.0504.
The figure for C48A A70U is 0.985; for C18U A71U it is 0.724.
With A42C A71G, the self-cleavage amounted to 0.361.
Next, C61U C64U: 1.2.
Next, C33A U65A: 0.332.
With C21A G54A, the self-cleavage was determined as 0.0437.
Next, C41U C62G: 0.426; C57U G73U: 0.338.
Next, G5U C49U: 0.791.
For C49A U69G, the self-cleavage was determined as 1.33.
Next, U23C C61A: 0.982; G31A C63U: 0.606.
Regarding C26A G52C, the self-cleavage is 0.872.
Consider C7U G39C, for which the self-cleavage stood at 0.0923.
As for C49U G80U, the self-cleavage worked out at 0.219.
For the variant G74C G82A, the self-cleavage worked out at 0.166.
Next, G73U A87U: 0.374.
The figure for C48A C86G is 1.04; for G6U C84A it is 0.375.
Next, G10C G40A: 0.95.
C3A C4A: the self-cleavage was 0.0542.
Next, C30A C32U: 0.171.
With C15G G54U, the self-cleavage amounted to 0.59.
On to C21G A87G, for which the self-cleavage came out at 0.0462.
The figure for C13U C63A is 0.542.
For the variant C33A C63A, the self-cleavage came out at 0.196.
Next, G31A G40A: 0.233; U46G G76U: 0.73; C75G G80C: 0.0709.
Next, U27C G34C: 0.106; A42G G59A: 0.831; G28C G38C: 0.0426.
Regarding C48G G52A, the self-cleavage turned out to be 0.86.
For the variant C3A G59U, the self-cleavage was found to be 0.755.
As to G1A C15A, the self-cleavage was 0.0923.
The figure for G55C C85A is 0.752.
The figure for G81C G82C is 0.106; for A56C G82U it is 0.404.
Next, G25C U27G: 0; C64A C85G: 0.594; G2U A42C: 0.0297.
Take G28C C44U: the self-cleavage was 0.
Turning to C58A G74U, the self-cleavage is 0.554.
For C61A U69A, the self-cleavage was 1.09.
On to C7A G81C, for which the self-cleavage is 0.0536.
C41U G68U: the self-cleavage was 0.504.
The figure for C3A G81U is 0.107; for U69G C84G it is 0.639; for C61U C84G it is 0.589.
Consider C33A C58A, for which the self-cleavage was 0.19.
Next, G52C C85U: 1.09; C18A C32A: 0.106; A45G C62U: 1.03.
The figure for A16C C49A is 0.609.
The figure for G68C U72C is 0.38; for C13U A16C it is 0.8; for U12G C44U it is 0.598.
In the case of G59A U79G, the self-cleavage amounted to 0.906.
Next, C18G C22G: 0.0755.
Next, C4U C30G: 0; G10A A71G: 0.703; C30G G53A: 0.0482.
Take G39C U69A: the self-cleavage came out at 0.17.
Next, G29C C32G: 0.0639; U65A C85A: 0.858; A16C G25C: 0.
Next, C24U G73U: 0.122; U20C G40U: 0.113.
The figure for G38U C49U is 0.172.
With C41A G59A, the self-cleavage is 0.844.
Next, C26G A42C: 0.158; G29A G38C: 0.0292; G53A G68U: 0.807.
In the case of G5A G80U, the self-cleavage worked out at 0.0971.
Take G2U G68C: the self-cleavage came out at 0.0339.
Next, C66G C84G: 0.745.
For the variant G10A G67C, the self-cleavage came to 0.599.
For C22A C63A, the self-cleavage turned out to be 0.166.
Consider C7U A77U, for which the self-cleavage was 0.151.
For U12C A71G, the self-cleavage stood at 0.287.
With G5C C30U, the self-cleavage is 0.128.
The figure for G2U C58A is 0.0494; for U37A A70G it is 0.214.
With G67A A77U, the self-cleavage turned out to be 0.339.
Next, U12C G53C: 0.332; G6U G38C: 0.095.
The figure for U37C G80C is 0.288.
The figure for G31U C62A is 0.602; for C18A C57U it is 0.086; for U20G G34A it is 0.
For the variant U23G C49G, the self-cleavage came to 0.346.
The figure for A42G A71G is 0.554.
As for G29C G31U, the self-cleavage was found to be 0.0755.
The figure for A78U U79A is 0.095.
Next, C21A U60C: 0.0739; C58A G80U: 0.21.
The figure for C57A U72A is 0.674.
For G54U C62G, the self-cleavage was 1.08.
The figure for A70G U72A is 0.594; for G1C C14U it is 0.213.
For the variant U46C G59C, the self-cleavage was found to be 0.965.
The figure for C7G G82C is 0; for C33A C57A it is 0.447.
Next, G38A C61G: 0.138; G17C C61G: 0.519; A71U A78G: 0.59.
Next, A45G G68U: 0.804; A43G G54C: 0.511; A42C G55U: 0.409.
Take C15U G52U: the self-cleavage was 1.21.
As to G53A A71C, the self-cleavage is 0.623.
Next, U20C C75A: 0.0594; C7U U60G: 0.831.
In the case of C26U G81U, the self-cleavage came to 0.439.
For the variant A16U A83G, the self-cleavage came to 0.567.
As to C22U G74C, the self-cleavage amounted to 0.157.
With U20G U37G, the self-cleavage worked out at 0.
Next, G2C A51C: 0.0308.
Next, A16C G31C: 0.0639; C30G G59C: 0.108; G31C G40A: 0.406.
Next, A56U U69C: 0.733; C4A G67C: 0.348; G25A C44A: 0.
On to G76C C84G, for which the self-cleavage was 0.618.
As for G40A C49G, the self-cleavage is 0.944.
As to G35A C63G, the self-cleavage was 0.346.
In the case of G76A G81C, the self-cleavage came out at 0.302.
On to C49G U72C, for which the self-cleavage was found to be 0.332.
Next, G31C A77G: 0.306.
For A56G G80C, the self-cleavage is 0.259.
Consider A16G C62U, for which the self-cleavage turned out to be 1.13.
Turning to G5A G74C, the self-cleavage is 0.0923.
Turning to C13A G28A, the self-cleavage came to 0.0875.
Take C18U A51G: the self-cleavage came out at 0.623.
Next, G68A A83G: 0.522.
The figure for U9C G34U is 0.178; for A51U A70U it is 0.849; for G38A C85U it is 0.128.
Next, C44U A77C: 0.277; G1A G34U: 0.095; G1U G35U: 0.288.
With C66U U69G, the self-cleavage came out at 0.867.
The figure for A8U U37G is 0.222; for C18G C57U it is 0.237.
Take U9G G74A: the self-cleavage was 0.751.
Regarding G25U C57G, the self-cleavage was 0.208.
Next, A8C C48U: 0.776.
Next, C15A U69G: 0.492.
Next, G50A A83C: 0.525; G10A A77U: 0.169.
For the variant C21G C33U, the self-cleavage is 0.
The figure for C24A G68A is 0.678; for C36A U65G it is 0.394; for C7A G40A it is 0.646.
Regarding U23C C30G, the self-cleavage turned out to be 0.0437.
Consider A42U U65A, for which the self-cleavage came out at 0.434.
Next, C30G C75G: 0.0997; C63G A70U: 0.564; A8U U69A: 0.962.
Next, C21G A56C: 0.0386; G38U A77C: 0.0554.
